For the assay, the target named is NuRD complex (nucleosome remodeling and deacetylase corepressor complex). Kind of assay: cell-based or functional assay.

The source of these data is patent publication US20180244738A1.

As for “full-length SALL1, wild-type (transfected, pcDNA3.1-SALL1) (from UniProt Q9NSC2 1-1324)”, the tumor cell senescence (SA-β-Gal+ cells) in transfected MCF-7 and E0771 cells, 3 days was 40%.
